We go through 1 molecule from patent publication US20090172832A1 (published 2009).

The target of the assay is T1, R. rubrum RUBISCO LSU (RRrbcLSU, product of the RRrbcM gene) (Rhodospirillum rubrum, UniProt Q2RRP5 1-466).
T1 construct: The purified R. rubrum RUBISCO used as blot control is filed under this molecule too; also called R. rubrum RUBISCO protein; 55-kD RUBISCO-like protein
T1 sequence: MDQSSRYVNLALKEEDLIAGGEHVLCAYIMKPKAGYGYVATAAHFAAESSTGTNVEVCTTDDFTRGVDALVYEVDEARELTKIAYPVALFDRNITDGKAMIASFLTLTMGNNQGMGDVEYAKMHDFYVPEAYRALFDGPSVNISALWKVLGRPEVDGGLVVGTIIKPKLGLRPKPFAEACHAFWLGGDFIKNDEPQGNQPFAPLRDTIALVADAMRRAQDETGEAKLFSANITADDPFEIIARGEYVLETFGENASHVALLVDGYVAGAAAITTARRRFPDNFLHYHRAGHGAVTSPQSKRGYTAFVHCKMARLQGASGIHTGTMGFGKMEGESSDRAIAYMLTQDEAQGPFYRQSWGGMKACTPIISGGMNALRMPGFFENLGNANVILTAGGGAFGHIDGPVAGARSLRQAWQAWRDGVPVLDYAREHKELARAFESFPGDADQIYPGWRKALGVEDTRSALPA
In words: SDS-PAGE of crude leaf extract of plant 1074 (Coomassie stain); inferred because SSU did not accumulate.

B1: endogenous tobacco RUBISCO small subunit (SSU) (enzyme, Nicotiana tabacum, UniProt P69249 58-180, looked up)
chain: MQVWPPINKKKYETLSYLPDLSQEQLLSEVEYLLKNGWVPCLEFETEHGFVYRENNKSPGYYDGRYWTMWKLPMFGCTDATQVLAEVEEAKKAYPQAWIRIIGFDNVRQVQCISFIAYKPEGY
notes: Endogenous protein in leaf extracts; also called endogenous SSU; tobacco SSU
In the case of B1, the binding result is “no binding”.
